Measurements as given in patent US20060148030A1, “Nuclear receptor err y 3” (FUJISAWA PHARMACEUTICAL CO., LTD, priority 2002, published 2006).

Target: T1, VDR (Rattus norvegicus, UniProt P13053)
T1 construct: expressed in transfected cells; host or cells: CV-1 (African green monkey kidney)
T1 sequence (P13053 1-423): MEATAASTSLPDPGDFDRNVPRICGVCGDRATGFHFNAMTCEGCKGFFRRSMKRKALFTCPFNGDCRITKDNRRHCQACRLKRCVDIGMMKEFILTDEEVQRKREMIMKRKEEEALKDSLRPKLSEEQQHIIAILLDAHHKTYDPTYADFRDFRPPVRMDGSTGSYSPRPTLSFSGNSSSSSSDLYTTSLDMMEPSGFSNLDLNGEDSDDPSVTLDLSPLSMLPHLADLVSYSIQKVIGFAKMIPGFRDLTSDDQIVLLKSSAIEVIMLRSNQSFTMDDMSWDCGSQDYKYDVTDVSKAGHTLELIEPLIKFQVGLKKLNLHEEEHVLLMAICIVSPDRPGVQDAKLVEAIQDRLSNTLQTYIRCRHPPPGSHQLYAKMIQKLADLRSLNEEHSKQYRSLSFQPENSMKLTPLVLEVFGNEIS
T1 sequence (P19793 1-462 partner): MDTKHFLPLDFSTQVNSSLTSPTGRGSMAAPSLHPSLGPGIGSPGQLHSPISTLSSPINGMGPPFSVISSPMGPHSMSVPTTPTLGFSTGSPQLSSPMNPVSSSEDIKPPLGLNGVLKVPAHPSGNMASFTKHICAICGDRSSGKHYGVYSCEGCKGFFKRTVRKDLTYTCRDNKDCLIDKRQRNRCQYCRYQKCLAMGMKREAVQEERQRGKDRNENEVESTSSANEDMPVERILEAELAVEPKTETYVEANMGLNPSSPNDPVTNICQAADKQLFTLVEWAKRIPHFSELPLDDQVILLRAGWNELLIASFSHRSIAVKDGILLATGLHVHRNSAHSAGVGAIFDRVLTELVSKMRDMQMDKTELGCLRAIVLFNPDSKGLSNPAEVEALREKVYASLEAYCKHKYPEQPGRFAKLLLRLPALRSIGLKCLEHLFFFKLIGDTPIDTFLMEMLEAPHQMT
Assay: Reporter gene assay, ERRγ3 coexisted with VDR, pGVP2-VDRE in CV-1 cells
Type: cell-based
Details: 5×10^−8 M calcitriol, FIG. 23
Procedure: Transfection was performed as follows: CV-1 cells were resuspended in DMEM supplemented with 10% fetal bovine serum, 2000 U/l of penicillin G, and 100 mg/l of streptomycin to a concentration of 2×10^5 cells/2.5 ml. This was then seeded to a 6-well plate at 2.5 ml per well, and incubated for 18-24 hours in a CO2 incubator at 37° C. and 5% CO2. 1 μg of each of the expression plasmids for the transcription factors, the luciferase reporter plasmid, and another luciferase reporter plasmid used for normalization of the measured values (pRL-TK), were dissolved in Opti-MEM (Gibco BRL), to a total of 150 μl. 7 μl of the transfection reagent LipofectAMINE 2000 (Gibco BRL) was diluted in 143 μl of Opti-MEM, and this was added to the mixture drop by drop while stirring. The mixture was incubated for 20 minutes. […] Luciferase activity was measured using the Dual-Luciferase™ Reporter Assay System (Promega). […] The protocol for measurement was as follows: 50 μl of Luciferase Assay Reagent II was added to each well, stirred for 0.3 seconds, and measured for one second. 50 μl of Stop&Glo™ Reagent was then added, stirred for 0.3 seconds, and measured for one second. The measured values for firefly luciferase activity were corrected by dividing by the value for the Renilla luciferase activity, the internal control. Average values and standard errors were calculated from triplicate samples. […]

B1: ERRγ3: novel ERRγ isoform, nuclear receptor protein of 396 amino acids (SEQ ID NO: 2) lacking part of the DNA binding domain (protein, listed as Homo sapiens)
chain: MSNKDRHIDSSCSSFIKTEPSSPASLTDSVNHHSPGGSSDASGSYSSTMNGHQNGLDSPPLYPSAPILGGSGPVRKLYDDCSSTIVEDPQTKCEYMLNSMPKRLCLVCGDIASGYHYGVASCEACKAFFKRTIQGVRLDRVRGGRQKYKRRIDAENSPYLNPQLAQPAKKPYNKIVSHLLVAEPEKIYAMPDPTVPDSDIKALTTLCDLADRELVVIIGWAKHIPGFSTLSLADQMSLLQSAWMEILILGVVYRSLSFEDELVYADDYIMDEDQSKLAGLLDLNNAILQLVKKYKSMKLEKEEFVTLKAIALANSDSMHIEDVEAVQKLQDVLHEALQDYEAGQHMEDPRRAGKMLMTLPLLRQTSTKAVQHFYNIKLEGKVPMHKLFLEMLEAKV
- modifying effect on the transcriptional stimulation activity of VDR: did not show a significant modifying effect
